Patent US20240392262A1, “TRANSPOSASE AND USES THEREOF” (Poseida Therapeutics, Inc., published 2024)

T1: PAH5 Left TAL-PBx (synthetic construct)
T1 chain: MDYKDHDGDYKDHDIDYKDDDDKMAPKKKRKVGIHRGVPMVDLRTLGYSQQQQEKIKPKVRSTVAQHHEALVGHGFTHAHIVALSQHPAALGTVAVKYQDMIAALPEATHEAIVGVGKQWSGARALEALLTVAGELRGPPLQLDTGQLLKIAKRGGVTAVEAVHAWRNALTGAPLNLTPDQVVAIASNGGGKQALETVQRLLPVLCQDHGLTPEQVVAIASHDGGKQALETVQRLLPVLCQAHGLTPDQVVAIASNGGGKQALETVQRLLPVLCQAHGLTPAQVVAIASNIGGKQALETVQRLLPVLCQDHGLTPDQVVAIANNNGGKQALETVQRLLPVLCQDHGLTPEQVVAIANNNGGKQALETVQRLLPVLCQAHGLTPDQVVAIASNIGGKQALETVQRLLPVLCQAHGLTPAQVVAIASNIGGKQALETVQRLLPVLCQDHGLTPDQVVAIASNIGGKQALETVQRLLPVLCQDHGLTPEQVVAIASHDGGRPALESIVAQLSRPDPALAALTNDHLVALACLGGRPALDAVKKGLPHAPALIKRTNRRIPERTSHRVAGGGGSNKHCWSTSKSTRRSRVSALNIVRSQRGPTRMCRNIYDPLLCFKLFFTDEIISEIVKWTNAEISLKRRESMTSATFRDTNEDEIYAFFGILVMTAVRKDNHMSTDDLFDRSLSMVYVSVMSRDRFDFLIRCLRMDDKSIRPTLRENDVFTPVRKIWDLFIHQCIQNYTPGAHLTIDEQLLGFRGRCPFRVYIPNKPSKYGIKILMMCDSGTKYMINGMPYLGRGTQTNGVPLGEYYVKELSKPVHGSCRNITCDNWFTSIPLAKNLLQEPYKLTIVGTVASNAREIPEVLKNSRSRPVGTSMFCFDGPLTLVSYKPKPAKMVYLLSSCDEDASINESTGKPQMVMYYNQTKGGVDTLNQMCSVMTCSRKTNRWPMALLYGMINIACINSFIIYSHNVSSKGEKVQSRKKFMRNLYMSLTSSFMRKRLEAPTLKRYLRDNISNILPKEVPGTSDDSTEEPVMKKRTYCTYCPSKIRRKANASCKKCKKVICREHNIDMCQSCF

T2: PAH5 Right TAL-PBx (synthetic construct)
T2 chain: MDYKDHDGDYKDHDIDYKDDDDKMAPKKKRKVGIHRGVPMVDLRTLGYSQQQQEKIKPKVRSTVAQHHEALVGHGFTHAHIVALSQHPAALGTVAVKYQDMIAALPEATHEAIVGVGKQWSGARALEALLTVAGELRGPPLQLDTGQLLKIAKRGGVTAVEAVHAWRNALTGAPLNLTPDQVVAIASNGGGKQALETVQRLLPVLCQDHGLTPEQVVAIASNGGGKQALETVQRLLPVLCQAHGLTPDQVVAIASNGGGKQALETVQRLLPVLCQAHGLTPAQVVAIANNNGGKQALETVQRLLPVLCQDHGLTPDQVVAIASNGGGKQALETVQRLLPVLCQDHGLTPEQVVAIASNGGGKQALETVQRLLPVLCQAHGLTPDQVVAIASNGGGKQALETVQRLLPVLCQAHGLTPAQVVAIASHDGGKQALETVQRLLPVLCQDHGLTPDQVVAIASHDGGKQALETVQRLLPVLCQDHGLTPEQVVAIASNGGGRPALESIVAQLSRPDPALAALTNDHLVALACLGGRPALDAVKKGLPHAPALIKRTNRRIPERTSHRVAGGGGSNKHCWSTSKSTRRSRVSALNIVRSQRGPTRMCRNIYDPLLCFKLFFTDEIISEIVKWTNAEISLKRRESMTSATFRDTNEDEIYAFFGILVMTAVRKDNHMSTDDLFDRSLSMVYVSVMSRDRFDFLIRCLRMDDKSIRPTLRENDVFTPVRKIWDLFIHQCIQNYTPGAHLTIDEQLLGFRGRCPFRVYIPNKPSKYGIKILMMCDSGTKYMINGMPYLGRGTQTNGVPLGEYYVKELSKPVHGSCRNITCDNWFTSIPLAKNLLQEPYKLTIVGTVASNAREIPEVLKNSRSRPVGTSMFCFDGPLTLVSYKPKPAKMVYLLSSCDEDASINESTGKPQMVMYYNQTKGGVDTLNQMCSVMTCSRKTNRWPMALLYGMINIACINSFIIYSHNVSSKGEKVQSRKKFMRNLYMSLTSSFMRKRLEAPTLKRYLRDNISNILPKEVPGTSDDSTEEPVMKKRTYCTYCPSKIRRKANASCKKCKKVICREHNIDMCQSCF

T3: PAH6 Left TAL-PBx (synthetic construct)
T3 chain: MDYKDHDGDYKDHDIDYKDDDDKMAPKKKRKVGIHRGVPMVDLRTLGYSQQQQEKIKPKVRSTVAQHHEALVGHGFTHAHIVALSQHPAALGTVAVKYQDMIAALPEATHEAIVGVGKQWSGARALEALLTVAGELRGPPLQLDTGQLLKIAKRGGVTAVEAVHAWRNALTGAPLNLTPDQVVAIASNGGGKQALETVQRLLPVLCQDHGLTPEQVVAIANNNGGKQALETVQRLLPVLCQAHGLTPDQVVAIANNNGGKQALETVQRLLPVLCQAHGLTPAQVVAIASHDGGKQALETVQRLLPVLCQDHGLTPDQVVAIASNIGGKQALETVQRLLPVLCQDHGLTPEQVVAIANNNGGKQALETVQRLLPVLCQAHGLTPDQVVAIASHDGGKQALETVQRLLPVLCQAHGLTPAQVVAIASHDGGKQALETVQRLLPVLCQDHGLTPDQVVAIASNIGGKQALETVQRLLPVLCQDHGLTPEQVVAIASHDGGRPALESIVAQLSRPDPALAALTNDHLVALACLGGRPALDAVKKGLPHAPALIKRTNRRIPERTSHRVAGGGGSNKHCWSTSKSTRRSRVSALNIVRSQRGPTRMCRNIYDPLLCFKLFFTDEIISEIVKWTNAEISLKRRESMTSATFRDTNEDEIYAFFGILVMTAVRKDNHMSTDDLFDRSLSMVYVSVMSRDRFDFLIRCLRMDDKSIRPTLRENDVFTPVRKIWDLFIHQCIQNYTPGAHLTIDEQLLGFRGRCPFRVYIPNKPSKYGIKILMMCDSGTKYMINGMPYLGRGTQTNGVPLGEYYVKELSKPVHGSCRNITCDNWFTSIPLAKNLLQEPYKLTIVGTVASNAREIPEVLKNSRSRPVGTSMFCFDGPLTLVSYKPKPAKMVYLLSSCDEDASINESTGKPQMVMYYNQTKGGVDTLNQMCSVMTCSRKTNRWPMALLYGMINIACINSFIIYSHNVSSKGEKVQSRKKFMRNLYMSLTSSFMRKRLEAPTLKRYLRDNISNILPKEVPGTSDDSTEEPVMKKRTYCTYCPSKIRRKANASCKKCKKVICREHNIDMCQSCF

T4: PAH6 Right TAL-PBx (synthetic construct)
T4 chain: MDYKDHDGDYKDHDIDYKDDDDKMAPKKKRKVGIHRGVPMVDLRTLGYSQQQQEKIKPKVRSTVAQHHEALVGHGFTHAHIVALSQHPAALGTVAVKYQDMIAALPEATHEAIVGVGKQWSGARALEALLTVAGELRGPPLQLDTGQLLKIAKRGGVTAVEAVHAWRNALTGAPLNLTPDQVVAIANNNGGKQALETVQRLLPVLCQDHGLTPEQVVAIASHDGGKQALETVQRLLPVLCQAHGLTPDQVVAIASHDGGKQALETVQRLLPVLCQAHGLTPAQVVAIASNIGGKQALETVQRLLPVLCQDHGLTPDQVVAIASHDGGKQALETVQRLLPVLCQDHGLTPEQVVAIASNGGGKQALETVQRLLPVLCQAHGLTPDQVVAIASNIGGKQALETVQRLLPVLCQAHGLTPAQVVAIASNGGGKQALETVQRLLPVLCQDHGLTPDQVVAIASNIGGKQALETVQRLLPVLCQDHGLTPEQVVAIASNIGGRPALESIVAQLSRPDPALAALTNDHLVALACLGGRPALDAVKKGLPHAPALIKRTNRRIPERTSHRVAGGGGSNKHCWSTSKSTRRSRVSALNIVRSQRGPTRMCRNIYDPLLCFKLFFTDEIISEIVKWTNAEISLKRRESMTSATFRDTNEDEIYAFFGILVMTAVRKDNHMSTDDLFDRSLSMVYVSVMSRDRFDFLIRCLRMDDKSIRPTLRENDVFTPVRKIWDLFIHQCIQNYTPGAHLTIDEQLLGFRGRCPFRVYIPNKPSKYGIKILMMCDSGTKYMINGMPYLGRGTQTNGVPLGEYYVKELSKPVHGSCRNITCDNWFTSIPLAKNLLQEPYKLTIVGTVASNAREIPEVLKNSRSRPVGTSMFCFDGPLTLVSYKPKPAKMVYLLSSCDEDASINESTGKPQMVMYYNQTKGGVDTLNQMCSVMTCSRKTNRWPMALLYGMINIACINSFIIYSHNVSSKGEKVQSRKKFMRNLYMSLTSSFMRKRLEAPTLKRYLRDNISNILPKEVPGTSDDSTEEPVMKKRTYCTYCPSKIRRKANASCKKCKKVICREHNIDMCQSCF


How the values were obtained:
Conditions in all cases: tags: 3xFlag, SV40 NLS
PAH5 Left TAL-PBx = molecular target: T1, PAH5 Left TAL-PBx; test: cell_activity; left only
PAH5 Right TAL-PBx = molecular target: T2, PAH5 Right TAL-PBx; test: cell_activity; right only
PAH6 Left TAL-PBx = molecular target: T3, PAH6 Left TAL-PBx; test: cell_activity; left only
PAH6 Right TAL-PBx = molecular target: T4, PAH6 Right TAL-PBx; test: cell_activity; right only

Binder	activity (PAH5 Left TAL-PBx)	activity (PAH5 Right TAL-PBx)	activity (PAH6 Left TAL-PBx)	activity (PAH6 Right TAL-PBx)
PAH5 target (dsDNA) DNA 1: TTCTAGGAAACTTGAACTATGATTTTAAAAAAAGAGAAAGAAGGAAACAAAA DNA 2: TTTTGTTTCCTTCTTTCTCTTTTTTTAAAATCATAGTTCAAGTTTCCTAGAA	3.6 % GFP+	3.9 % GFP+	–	–
PAH6 target (dsDNA) DNA 1: TTGGCAGCCACTGTCCTAAATATTTTAACCAAATCAAAATCTTATAGTGGCA DNA 2: TGCCACTATAAGATTTTGATTTGGTTAAAATATTTAGGACAGTGGCTGCCAA	–	–	2.7 % GFP+	2.5 % GFP+
